± gives the standard deviation of the averaged measurements.

In this data set the test system is ATP. The data set is described as follows: switch fluorescence ratio, 500 uM ATP over buffer (Cy3 cluster intensity, sum of 5 cycles each) (fold (ratio)); higher = stronger signal-on switching upon ATP binding; sequences stand for … in TCGTCGGCAGCGTCAGATGTGTATAAGAGACAGTTTTTTTTTTTTTTTTTTTTTTTTT…TC. Particulars: aptamer strand: ATP DNA aptamer (quencher-CACCTGGGGGAGTATTGCGGAGGAAGG + anchor), 100 nM annealed; ATP concentration: 500 uM. In short, it runs like this: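 Clusters carrying Cy3-labelled switching strands on a modified Illumina MiSeq flow-cell were annealed to 100 nM quencher-labelled ATP aptamer and imaged in selection buffer. They were imaged again after 15 min with 500 uM ATP at 22 °C, over five buffer/ATP cycles with NaOH stripping and re-annealing in between. For each cluster, the fluorescence ratio is the summed Cy3 intensity of the target cycles divided by that of the buffer cycles, averaged per switch-domain sequence. Clusters outside 100-1000 RFU were left out.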
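Further: ATP exposure 15 min at 22 °C before imaging.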

With TTGGGCTGGA, the switch fluorescence ratio stood at 0.961 ± 0.054.
Under TTTTTGTACT stands 1.11 ± 0.083; under GAATGAGTTG, 0.977 ± 0.02; under GGACGGAAGA, 1.101 ± 0.01.
Take GTTGTGAGCG: the switch fluorescence ratio worked out at 1.01 ± 0.048.
Regarding ATCCTGGATA, the switch fluorescence ratio is 1.003 ± 0.01.
As to GGGGGATTGT, the switch fluorescence ratio came out at 1.02 ± 0.043.
As to TTGGAGAGTG, the switch fluorescence ratio amounted to 0.963 ± 0.021.
As to AGGTTTTGTG, the switch fluorescence ratio is 1.02 ± 0.044.
For the sequence TTGAGCAAGT, the switch fluorescence ratio was found to be 1.14 ± 0.075.
With GTGATCGTCG, the switch fluorescence ratio came out at 1.01 ± 0.017.
For the sequence GCCAGGGACG, the switch fluorescence ratio is 1.02 ± 0.028.
Under TAAGGTACTG stands 0.984 ± 0.086; under ATAAGTTTGG, 1.02 ± 0.033.
For the sequence GTGGGAATGG, the switch fluorescence ratio amounted to 0.9747 ± 0.0072.
Turning to TTATTTTATG, the switch fluorescence ratio was determined as 0.994 ± 0.027.
In the case of TTCAATGCTC, the switch fluorescence ratio amounted to 2.17 ± 0.82.
GGGGTATATG: the switch fluorescence ratio came to 0.995 ± 0.027.
In the case of GGATTGGCGG, the switch fluorescence ratio is 0.983 ± 0.039.
AAACCTGGGT: the switch fluorescence ratio was 1.03 ± 0.025.
Turning to CGTTTTAGAG, the switch fluorescence ratio turned out to be 1.01 ± 0.016.
Take AGGGAGGGGA: the switch fluorescence ratio worked out at 1.03 ± 0.061.
Consider ATGTCAGGGA, for which the switch fluorescence ratio was 0.994 ± 0.019.
Take AGGGTAGGTG: the switch fluorescence ratio worked out at 1.09 ± 0.012.
On to GGTGAGGCAA, for which the switch fluorescence ratio worked out at 1.19 ± 0.12.
Under TTTCTGGTGC stands 1.16 ± 0.085.
In the case of TTAATCGATG, the switch fluorescence ratio amounted to 1 ± 0.019.
Under TATCAAAGGG stands 1.023 ± 0.0067; under AGGGAGGCGG, 0.974 ± 0.032; under TTTATTTTAT, 1.02 ± 0.057.
On to TTGGGCTACG, for which the switch fluorescence ratio turned out to be 1.002 ± 0.0048.
For the sequence AACGGTGGGG, the switch fluorescence ratio came to 0.992 ± 0.034.
GGGTCGTAGG: the switch fluorescence ratio is 1.002 ± 0.0011.
Under TGTAAAGATT stands 1.0093 ± 0.00041; under AAATCGGTGT, 1 ± 0.037; under TATTTTGGGC, 0.997 ± 0.046.
Regarding TGCTTTAGGT, the switch fluorescence ratio was 0.9922 ± 0.0092.
With GGGTACTGTG, the switch fluorescence ratio came out at 0.971 ± 0.015.
Consider CATAAGGGTG, for which the switch fluorescence ratio came out at 1.09 ± 0.038.
On to CTATGGTATC, for which the switch fluorescence ratio is 1.02 ± 0.015.
In the case of TAGGCATCGT, the switch fluorescence ratio came out at 0.969 ± 0.019.
Take TTTGAGAAAT: the switch fluorescence ratio was 0.994 ± 0.029.
Under CGACTATAGG stands 1 ± 0.023.
Regarding ACATTCTACG, the switch fluorescence ratio turned out to be 1.25 ± 0.017.
For AGGAAATTGT, the switch fluorescence ratio stood at 1.01 ± 0.059.
With GTAGTTGTGG, the switch fluorescence ratio was determined as 1.01 ± 0.014.
The figure for TTTCGTGGGA is 0.999 ± 0.04.
The figure for ATGGGTGTGC is 1 ± 0.034; for CCAAGGTGGA it is 1.1 ± 0.12.
The figure for TTGCTAGTTA is 0.971 ± 0.037.
Take TGCTCGTGCT: the switch fluorescence ratio was determined as 1.01 ± 0.028.
With CGAGTTCGGC, the switch fluorescence ratio was determined as 0.976 ± 0.06.
Under ATATCCCAGG stands 4.21 ± 0.64; under GGTTTTCACC, 0.9866 ± 0.0065.
The figure for AGAAGAGCTT is 1.011 ± 0.0024.
Under TAGTATTTTT stands 0.977 ± 0.023.
On to AATGGATATG, for which the switch fluorescence ratio amounted to 1.02 ± 0.058.
With AGAAATTGGA, the switch fluorescence ratio was determined as 1.02 ± 0.044.
On to GTGGGGCGTG, for which the switch fluorescence ratio was 1 ± 0.03.
Consider CGTGTTCTGG, for which the switch fluorescence ratio came to 0.994 ± 0.031.
As to GAGATCCATG, the switch fluorescence ratio came out at 1.01 ± 0.038.
As for TTTTGGTAGG, the switch fluorescence ratio is 1.02 ± 0.02.
As to CACGTTACTG, the switch fluorescence ratio came to 1.66 ± 0.12.
The figure for ATTATTTGGT is 1.01 ± 0.014; for CGTTGAGGAA it is 0.9853 ± 0.0038; for CAATATTGCC it is 1.02 ± 0.051.
Take GTTGCGTCTA: the switch fluorescence ratio turned out to be 1.04 ± 0.033.
As for TGGTTCTGAC, the switch fluorescence ratio was 1.03 ± 0.038.
Under TTTCATACGT stands 1.02 ± 0.05.
As to GGGGGTGCGA, the switch fluorescence ratio is 1.01 ± 0.026.

(Values after the supplement of paper PMC10126150.)
